Experimental data from publication doi:10.1101/518761.

Target: gp53C, C-terminal fragment of gene product 53 (gp53) of Acinetobacter baumannii bacteriophage AP22 (Acinetobacter baumannii bacteriophage AP22)
Assay: crystal structure

gp53C, C-terminal fragment of gene product 53 (gp53) of Acinetobacter baumannii bacteriophage AP22 (domain or fragment)
stoichiometry N: 3
